Source: patent publication US20250051407A1, “De novo designed sequence-specific DNA binding proteins” (University of Washington, priority 2023, published 2025)

Tested on: synthetic promoter containing the designed DBP binding sites controlling YFP
Experiment: Transcriptional repression assay (NOT gate, YFP) in E. coli
Assay type: cell-based, Escherichia coli
Conditions: IPTG induction (1 mM), flow cytometry
Source text: We next tested the ability of the designed DBPs to function in cells to regulate transcription. We constructed candidate NOT gates (38) to assay transcriptional repression in Escherichia coli, where the input is a designed DBP under control of the IPTG-inducible PTac promoter and the output is yellow fluorescent protein (YFP) expression driven by a promoter incorporating each DBP's DNA binding site. […] To increase avidity and bulk, we fused the DBPs to the homodimerization domain of the TetR protein (39), using RFdiffusion (40) and ProteinMPNN sequence design to generate rigid linkers that orient the DBP domain of each dimer unit on a DNA target containing two palindromic binding sites. For DBPs 48, 69, and 57, we selected 96 TetR fusions for experimental characterization in the NOT gate circuit. Upon initial screening, we observed modest repression for several designs and selected two for further validation (one incorporating DBP48, the other DBP57) (FIG. 8). […]

B1: DBP48: designed DNA-binding protein, SEQ ID NO: 22, DNA target D (protein)
chain: MTPEEIAEAKRIGKEVKERRKELGLTQRELAEKLGVSRSTVSDIENGRRLPSEELLKKIKEILGV
Fold repression of YFP by single DBP domains and tandem linked DBP domains: not observed
